Experimental data published in patent US20250277030A1, “ANTI-NAPI2B ANTIBODIES AND METHODS OF USE” (Zymeworks BC Inc., priority 2022, published 2025).

Experiments:
cynomolgus NaPi2b = experiment: Flow cytometry binding to HEK293-6e cells transfected with cynomolgus NaPi2b (Example 5); conditions: transfected HEK293-6e cells
Experimental: The binding cross-reactivity of humanized antibody variant v29456 to human, cynomolgus and mouse NaPi2b was assessed by flow cytometry using HEK293-6e transfected cells.
Briefly, HEK293-6e cells were transfected for ˜24 hours to transiently express human NaPi2b, cynomolgus or mouse NaPi2b, at 1 μg of DNA per 1 million cells. Following transfection, 50,000 cells per well were seeded in V-bottom 96-well plates and incubated with 200 nM of primary antibody for 18-24 hours at 4° C. to prevent internalization. Post-incubation, cells were washed and stained with anti-Human IgG Fc AF647 conjugate (Jackson Immuno Research Labs, West Grove, PA, Cat. No. 109-605-098, Lot. No. 124868) at 4° C. for 1 hour. Following staining and washing, fluorescence was detected by flow cytometry on BD LSRFortessa™ Cell Analyzer (BD Biosciences, Franklin Lake, NJ) with 10,000 minimum events collected per well. The AF647/APC-A GeoMean (fluorescence signal geometric mean, proportional to anti-Human AF647 binding) was calculated for the live singlet cell population for each primary antibody using FlowJo™ v8 software (BD Biosciences, Franklin Lake, NJ). The Bmax and Kd of each primary antibody were calculated using GraphPad Prism Version 9 (GraphPad Software, San Diego, CA)

[1] = molecular target: T1, NaPi2b expressed on TOV-21G cells (Homo sapiens, UniProt O95436); experiment: Cellular binding to TOV-21G cells by flow cytometry (Example 19); conditions: NB = no binding (apparent Kd >150 nM)
T1 construct: IGROV-1 and TOV-21G cells express endogenous NaPi2b at high and moderate levels, respectively; endogenous in cells; host or cells: TOV-21G
T1 sequence (O95436 1-690): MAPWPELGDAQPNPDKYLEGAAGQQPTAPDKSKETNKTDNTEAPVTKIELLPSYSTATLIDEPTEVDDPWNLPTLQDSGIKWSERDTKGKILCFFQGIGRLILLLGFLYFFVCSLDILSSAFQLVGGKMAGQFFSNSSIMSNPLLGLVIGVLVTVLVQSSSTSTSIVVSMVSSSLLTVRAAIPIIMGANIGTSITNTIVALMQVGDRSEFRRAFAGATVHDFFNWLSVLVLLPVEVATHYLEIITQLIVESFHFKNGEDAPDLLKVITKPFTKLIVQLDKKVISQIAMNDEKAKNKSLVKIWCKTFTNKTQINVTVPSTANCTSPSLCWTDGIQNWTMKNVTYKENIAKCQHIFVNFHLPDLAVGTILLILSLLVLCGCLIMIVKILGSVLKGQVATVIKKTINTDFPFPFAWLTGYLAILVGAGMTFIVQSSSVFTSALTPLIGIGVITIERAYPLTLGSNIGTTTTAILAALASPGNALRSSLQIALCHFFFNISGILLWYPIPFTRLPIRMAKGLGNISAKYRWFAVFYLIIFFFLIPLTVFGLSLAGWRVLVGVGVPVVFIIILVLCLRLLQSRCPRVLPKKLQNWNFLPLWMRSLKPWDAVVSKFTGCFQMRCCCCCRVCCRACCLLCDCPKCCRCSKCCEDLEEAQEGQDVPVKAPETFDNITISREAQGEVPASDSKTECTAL
Experimental: Briefly, cells were seeded at 50,000 cells/well in conical-bottom 96-well plates and treated with test antibody for 24 hours at 4° C. to prevent internalization. Palivizumab (anti-RSV antibody, v22277) was included as a negative control. […] Following incubation, cells were washed and stained with anti-Human IgG Fc AF647 conjugate (Jackson Immuno Research Labs, West Grove, PA; Cat. No. 109-605-098) at 4° C. for 30 min. Following incubation and washing, fluorescence was detected by flow cytometry on a BD LSRFortessa™ Cell Analyzer (BD Biosciences, Franklin Lake, NJ) with 1,000 minimum events collected per well. The AF647/APC-A GeoMean (fluorescence signal geometric mean, proportional to anti-Human AF647 binding) was calculated for the live cell population using FlowJo™ Version 10.8.1 (BD Biosciences, Franklin Lake, NJ) and plotted for each test antibody using GraphPad Prism Version 9 (GraphPad Software, San Diego, CA).
The ability of the humanized antibody variants v38591 and v29456 to bind to NaPi2b expressed on cells was assessed on endogenous NaPi2b-expressing tumor cell lines IGROV-1 (ovarian adenocarcinoma) and TOV-21G (ovarian carcinoma) by flow cytometry. IGROV-1 and TOV-21G cells express endogenous NaPi2b at high and moderate levels, respectively, as described in Example 10.
Cellular binding was performed according to methods described in Example 13.

cynomolgus NaPi2b, sequence (as listed by the source): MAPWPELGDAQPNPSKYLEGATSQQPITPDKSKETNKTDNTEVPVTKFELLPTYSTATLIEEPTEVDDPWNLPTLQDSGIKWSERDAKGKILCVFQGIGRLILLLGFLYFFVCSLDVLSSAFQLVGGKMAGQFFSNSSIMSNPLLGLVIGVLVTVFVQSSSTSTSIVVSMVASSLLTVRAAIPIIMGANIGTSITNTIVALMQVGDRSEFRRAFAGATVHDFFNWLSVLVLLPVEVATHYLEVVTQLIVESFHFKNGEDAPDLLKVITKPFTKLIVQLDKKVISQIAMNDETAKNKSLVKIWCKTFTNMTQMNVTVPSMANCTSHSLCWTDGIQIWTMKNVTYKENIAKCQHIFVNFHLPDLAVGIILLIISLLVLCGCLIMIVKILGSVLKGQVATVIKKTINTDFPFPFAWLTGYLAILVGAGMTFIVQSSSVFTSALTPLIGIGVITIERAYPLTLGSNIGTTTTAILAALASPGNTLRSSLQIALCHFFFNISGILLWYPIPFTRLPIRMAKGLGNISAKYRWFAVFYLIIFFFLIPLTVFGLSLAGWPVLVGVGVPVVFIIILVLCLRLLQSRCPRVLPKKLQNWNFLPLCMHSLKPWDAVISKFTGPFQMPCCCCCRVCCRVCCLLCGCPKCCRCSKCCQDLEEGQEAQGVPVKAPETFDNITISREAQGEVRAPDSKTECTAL

B1: v29456: humanized anti-NaPi2b IgG1/kappa antibody H1L2; VH SEQ ID NO:24, VL SEQ ID NO:29 (antibody, V domains shown)
VH: QVQLVQSGAEVKKPGASVKVSCKASGFTFTSYNVHWVRQAPGQGLEWMGAISPGNGDLSYAQKFQGRVTMTRDTSTSTVYMELSSLRSEDTAVYYCARGRTGMGAVDYWGQGTLVTVSS
VL: DVQMTQSPSSLSASVGDRVTITCRASQDVYSYLNWYQQKPGKAVKLLIYYTSRLQSGVPSRFSGSGSGTDYTLTISSLQPEDFATYYCQQYNIFPWTFGQGTKLEIK
modifications: v29452, v29456, v29460 VH (H1); v29453, v29454, v29455, v29456 VL (L2)
How did the “apparent Kd on cynomolgus NaPi2b, fold lower than v18992 (MX35)” value (cynomolgus NaPi2b) turn out when B1 was run?
Its value is 10 fold.

And the “Bmax (APC-A GeoMean), Cyno NaPi2b” value (cynomolgus NaPi2b; 18-24 hours at 4° C.)?
Its value is 2,006 APC-A GeoMean.

And the Kd (cynomolgus NaPi2b; 18-24 hours at 4° C., highest antibody concentration 200 nM, read-out: Apparent Kd (nM), Cyno NaPi2b)?
Its Kd is 3.2 nM.

What about the Bmax [1] of the same molecule?
Its Bmax is 11,271.

What about the “Curve Hill Slope (h)” value [1] of the same molecule?
The value was 1.1.

And the Kd [1]?
The Kd was 0.6 nM.
